The values below are quoted from earlier work in PMC12332068.

The target of data set [1] is Bzz1 SH3#1 (Saccharomyces cerevisiae) (UniProt P38822). As to the kind of experiment: BLI.
Data set [2] concerns the target Bzz1 SH3#1-2 (Saccharomyces cerevisiae) (UniProt P38822). Put plainly: BLI. Background: In BLI a coated tip is dipped into the sample, and binding shifts an interference pattern.

The term Kd denotes the concentration at which binding is half-saturated. On to Las17 300-422 (from UniProt Q12446), for which the Kd in data set [1] was 7.5 µM; in data set [2], 0.087 µM.
